Measurements taken from PMC2064615.

Biological target: taxol-stabilized microtubules polymerized from tubulin purified from bovine brain (bovine)
Assay: co-sedimentation

stoichiometry N (tubulin heterodimers per emerin) | Binder
24 | His-tagged recombinant emerin peptide corresponding to aa 73–180 (domain or fragment) MYDLPKKEDALLYQSKGYNDDYYEESYFTTRTYGEPESAGPSRAVRQSVTSFPDADAFHHQVHDDDLLSSSEEECKDRERPMYGRDSAYQSITHYRPVSASRSSLDLS
8 | emerin peptide aa 1–176 (most of the nucleoplasmic domain) (domain or fragment) MDNYADLSDTELTTLLRRYNIPHGPVVGSTRRLYEKKIFEYETQRRRLSPPSSSAASSYSFSDLNSTRGDADMYDLPKKEDALLYQSKGYNDDYYEESYFTTRTYGEPESAGPSRAVRQSVTSFPDADAFHHQVHDDDLLSSSEEECKDRERPMYGRDSAYQSITHYRPVSASRSS
